Measured values published in the supplement of paper PMC7877785.
± gives the uncertainty stated by the source.

Assay: self-splicing fitness, log relative to wild type (ln ratio); higher = more splicing; Tetrahymena group I intron in knt gene, E. coli kanamycin selection, DiMSum; sequences stand for … in CUCUCU…GGAGGGAAAAGUUAUCAGGCAUGCACCUGGUAGCUAGUCUUUAAACCAAUAGAUUGCAUCGGUUUAAAAGGCAAGACCGUCAAAUUGCGGGAAAGGGGUCAACAGCCGUUCAGUACCAAGUCUCAGGGGAAACUUUGAGAUGGCCUUGCAAAGGGUAUGGUAAUAAGCUGACGGACAUGGUCCUAACCACGCAGCCAAGUCCUAAGUCAACAGAUCUUCUGUUGAUAUGGAUGCAGUUCACAGACUAAAUGUCGGUCGGGGAAGAUGUAUUCUUCUCAUAAGAUAUAGUCGGACCUCUCCUUAAUGGGAGCUAGCGGAUGAAGUGAUGCAACACUGGAGCCGCUGGGAACUAAUUUGUAUGCGAAAGUAUAUUGAUUAGUUUUGGAGUACUCGUGGUCG
Method in brief: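 A randomised library covering all eight P1ex-region intron nucleotides was built with the intron in the knt kanamycin-resistance gene on pET-22b(+) and held in E. coli BL21(DE3). Cells were grown overnight at 37°C or 30°C on LB agar, with or without 25 μg/mL kanamycin, plus 100 μg/mL carbenicillin, 50 μM IPTG and 0.2% rhamnose, and pooled colonies were amplicon-sequenced on an Illumina HiSeq 2500. DiMSum fitness is the error-weighted combination of wild-type-normalised replicate fold changes, kanamycin versus none.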

Row | Sequence | self-splicing fitness (ln) (30 °C) | self-splicing fitness (ln) (37 °C)
1 | CAGGAGCAAUAUUACGGUCA | -2.39 ± 0.3 | -1.56 ± 0.32
2 | CAGGAGCAAUAUUACGUAGU | -3.42 ± 0.17 | -1.55 ± 0.13
3 | CAGGAGCAAUAUUACGUCAA | -3.36 ± 0.2 | -3.44 ± 0.33
4 | CAGGAGCAAUAUUACGUCUC |  | -3.07 ± 0.3
5 | CAGGAGCAAUAUUACGUGUC | -3.59 ± 0.21 | -3.03 ± 0.18
6 | CAGGAGCAAUAUUACGUUCG | -0.032 ± 0.12 | 0.338 ± 0.15
7 | CAGGAGCAAUAUUACGUUGA | -3.22 ± 0.37 | -3.85 ± 0.42
8 | CAGGAGCAAUAUUACGUUUA | -3.29 ± 0.15 | -2.44 ± 0.15
9 | CAGUAGCAAUAUUACGAAGU | -0.925 ± 0.18 | -1.82 ± 0.27
10 | CAGUAGCAAUAUUACGACAU | -3.226 ± 0.023 | -1.83 ± 0.036
11 | CAGUAGCAAUAUUACGAGCA | -2.59 ± 0.3 | -2.3 ± 0.27
12 | CAGUAGCAAUAUUACGAUAU | -2.7 ± 0.2 | -1.88 ± 0.21
13 | CAGUAGCAAUAUUACGAUCU | -1.52 ± 0.15 | -1.15 ± 0.19
14 | CAGUAGCAAUAUUACGAUUG | -1.73 ± 0.083 | -0.648 ± 0.11
15 | CAGUAGCAAUAUUACGCAAU | -1.7 ± 0.39 | 
16 | CAGUAGCAAUAUUACGCACU | -2.19 ± 0.18 | -1.34 ± 0.17
17 | CAGUAGCAAUAUUACGCAUU | -1.49 ± 0.18 | -2.5 ± 0.22
18 | CAGUAGCAAUAUUACGCCUG | -2.42 ± 0.25 | -2.46 ± 0.44
19 | CAGUAGCAAUAUUACGCGUU | -2.21 ± 0.23 | -1.64 ± 0.23
20 | CAGUAGCAAUAUUACGCUCG | -0.354 ± 0.12 | -0.439 ± 0.17
21 | CAGUAGCAAUAUUACGCUUA | -0.683 ± 0.21 | -0.832 ± 0.19
22 | CAGUAGCAAUAUUACGGAGG | -1.61 ± 0.094 | -0.514 ± 0.12
23 | CAGUAGCAAUAUUACGGAGU | -3.34 ± 0.36 | -2.67 ± 0.26
24 | CAGUAGCAAUAUUACGGCCU | -3.02 ± 0.2 | -1.67 ± 0.17
25 | CAGUAGCAAUAUUACGGCGG | -0.246 ± 0.081 | -0.627 ± 0.091

Row | Sequence | self-splicing fitness (ln) (30 °C) | self-splicing fitness (ln) (37 °C)
26 | CAGUAGCAAUAUUACGGCUA | -1.11 ± 0.15 | -1.21 ± 0.16
27 | CAGUAGCAAUAUUACGGCUU | -1.58 ± 0.16 | -1.01 ± 0.14
28 | CAGUAGCAAUAUUACGUAUC | -3.18 ± 0.33 | -2.2 ± 0.25
29 | CAGUAGCAAUAUUACGUAUG | -2.06 ± 0.11 | -1.93 ± 0.16
30 | CAGUAGCAAUAUUACGUGGA | -2.9 ± 0.26 | -3.63 ± 0.42
31 | CAGUAGCAAUAUUACGUGUU | -3.39 ± 0.22 | -2.78 ± 0.19
32 | CAUAAGCAAUAUUACGAAAG | -1.13 ± 0.09 | -0.268 ± 0.12
33 | CAUAAGCAAUAUUACGAACC |  | -1.26 ± 0.35
34 | CAUAAGCAAUAUUACGAAGC | -3.09 ± 0.44 | 
35 | CAUAAGCAAUAUUACGACUG | -0.582 ± 0.072 | -0.476 ± 0.1
36 | CAUAAGCAAUAUUACGAGCU | -4 ± 0.34 | -2.76 ± 0.3
37 | CAUAAGCAAUAUUACGAUCC | -3.25 ± 0.23 | -2.71 ± 0.32
38 | CAUAAGCAAUAUUACGAUGG | 0.0378 ± 0.065 | -0.159 ± 0.093
39 | CAUAAGCAAUAUUACGCAUU | -3.5 ± 0.18 | -1.35 ± 0.17
40 | CAUAAGCAAUAUUACGCCGC | -2.82 ± 0.38 | -1.59 ± 0.47
41 | CAUAAGCAAUAUUACGGACA | -3.09 ± 0.25 | -2.11 ± 0.19
42 | CAUAAGCAAUAUUACGGAUU | -3.15 ± 0.19 | -2.25 ± 0.23
43 | CAUAAGCAAUAUUACGGCCG | 0.39 ± 0.15 | 0.125 ± 0.16
44 | CAUAAGCAAUAUUACGGCGU | -2.7 ± 0.15 | -0.836 ± 0.12
45 | CAUAAGCAAUAUUACGGGAU | -3.51 ± 0.16 | -2.3 ± 0.2
46 | CAUAAGCAAUAUUACGGGCC |  | -1.25 ± 0.36
47 | CAUAAGCAAUAUUACGGGUC | -3.31 ± 0.24 | -2.97 ± 0.28
48 | CAUAAGCAAUAUUACGUAAA | -3.55 ± 0.25 | -2.11 ± 0.17
49 | CAUAAGCAAUAUUACGUAGG | -0.808 ± 0.066 | -0.719 ± 0.084
